Assay results as given in the nanobody polyreactivity screen of Harvey et al. (2022).

assay: yeast display, Sf9 membrane polyspecificity reagent, FACS + sequencing; frameworks hold sequencing errors
How it was run: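 Galactose-induced (36–48 hours) yeast carrying a synthetic nanobody display library were exposed to 10% biotinylated, detergent-solubilized Sf9 membrane reagent at 4 °C for 1 hour. FACS followed streptavidin microbead enrichment, using low and high (top ~1%) gates for expression (anti-HA) and reagent binding (streptavidin). Colony PCR, MiSeq 2 × 250 sequencing and CDR-length filtering followed. Labels for polyreactivity reflect the gate of origin.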

Sequence	polyreactivity (PSR sort gate)
QVQLVESGGGLVQAGGSLRLSCAASGSTFGGYAMGWYRQAPGKERELVAAISSGGSTYYADSVKGRFTISRDNAKNTVYLQMNSLKPEDTAVYYCAADTYAHWGYYGSYYRDDYWGQGTQVTVSS	low polyreactivity
QVQLVESGGGLVQAGGSLRLSCAASGSTFGGYAMGWYRQAPGKERELVATITGGGSTNYADSVKGRFTISRDNAKNTVYLQMNSLKPEDTAVYYCAATEKYQYKVYYDPVGAYDYWGQGTQVTVST	low polyreactivity
QVQLVESGGGLVQAGGSLRLSCAASGSTFGHNAMGWYRQAPGKERELVAAIDSGDGTTYADSVKGRFTISRDNAKNTVYLQMNSLKPEDTAVYYCAATTDRAEDDDNIGGYWGQGTQVTVSS	low polyreactivity
QVQLVESGGGLVQAGGSLRLSCAASGSTFGIYAMGWYRQAPGKERELVATISWGGGDTYYADSVKGRFTISRDNAKNTVYLQMNSLKPEDTAVYYCAADLWYGKTSGSTTPDPYDYWGQGTQVTVSS	low polyreactivity
QVQLVESGGGLVQAGGSLRLSCAASGSTFGIYARGWYIQAPGKEWDLVAAITWIGSDTYYADSVKGRFTISRDNAKNTVYLQMISLKPEDTAVYYCNAVKLLGTRGYGYWGQGTQVTVSS	high polyreactivity
QVQLVESGGGLVQAGGSLRLSCAASGSTFGKNAMGWYRQAPGKERELVAAISRSGGRTYYADSVKGRFTISRDNAKNTVYLQMNSLKPEDPAVYYCAREWYTAGSGDYWGQGTQVTVSS	low polyreactivity
QVQLVESGGGLVQAGGSLRLSCAASGSTFGKNAMGWYRQAPGKERELVASITWRGGSTYYADSVKGRFTISRDNAKNTVYLQMNSLKPEDTAVYYCATKWHIHIGSYKYYYWGHGTQVTVSS	low polyreactivity
QVQLVESGGGLVQAGGSLRLSCAASGSTFGKYAMGWYRPAPGKERELVAGITYSGGSTYYADSVKGRFTISRDNAKNTVYLQMNSLKPEDTAVYYCAADGSYYTDFVASKYDYWGQGTQVTVSS	low polyreactivity
QVQLVESGGGLVQAGGSLRLSCAASGSTFGKYAMGWYRQAPGKERELVASISRSGASTYYADSVKGRFTISRDNAKNTVYVQMNSQKPEDTAVYYCNKARNPEGYWRYDYWGQGTQVTVSS	high polyreactivity
QVQLVESGGGLVQAGGSLRLSCAASGSTFGLNAMGWYRQAPGKERELVAAITRSDITNYADSVKGRFTISRDNAKNTVYLQMNSLKPEDTAVDYCAARGLWPYDYWGQGTQVTVSS	low polyreactivity
QVQLVESGGGLVQAGGSLRLSCAASGSTFGLYAMGWYRQAPGKERELVAAITRGGVTDFADCVKGRFTFSRDNAKYTVYLQMNSLKPEDTAVYYCAAQYKRYHGLFGFWGQGTQVTVSS	high polyreactivity
QVQLVESGGGLVQAGGSLRLSCAASGSTFGLYGMGWYRQAPGKDRELVAAITWSGGSTYYADSVKGRFTISRDNAKNTVYLQMNSLKPEDTAVYYSNADYYYWFSYGIGDNEYDYWGQGTQVTVSS	low polyreactivity
QVQLVESGGGLVQAGGSLRLSCAASGSTFGNNTMGWNRQSPGKEREFVAAITESGGGTYADSVKGRFTISRDNAKNTVYLQLNSLKPEDTAVYYCAAVWYIWPFAFYDWAQGTQVTVSS	high polyreactivity
QVQLVESGGGLVQAGGSLRLSCAASGSTFGNNTMGWYRQAPGKEREFVAAITESGGGTYADSVKGRFTISRDNAKNTVYLQMNSLKPEDTAVYYCAAVWYIWPFAFYYWGQGTQVTVSS	high polyreactivity
QVQLVESGGGLVQAGGSLRLSCAASGSTFGNYAMGGYRQAPGKERELVAVSTSAGSTYYADSVKGRFTISRDNAKNTVYLQMNSLKPEDPAVYYCNTGKHVRYYYWGQGTQVTVSS	low polyreactivity
QVQLVESGGGLVQAGGSLRLSCAASGSTFGPNAMGWYRQAPGKERELVATISFRGGTTYYADSVKGRFTISRDHAKNTVYLQMNSLKPEDTAVYYCAVKVGYVRLLYHYYYWGQGTQGTVSS	high polyreactivity
